Experimental data from IntAct's records for PubMed 21321230.

How the values were obtained:
dcc_rat Dcc [1] = molecular target: dcc_rat Dcc (UniProt Q63155)
dcc_rat Dcc [2] = molecular target: dcc_rat Dcc (UniProt Q63155); remark: listed apart in the source

Sequence of UniProt Q63155 (Q63155 whole entry): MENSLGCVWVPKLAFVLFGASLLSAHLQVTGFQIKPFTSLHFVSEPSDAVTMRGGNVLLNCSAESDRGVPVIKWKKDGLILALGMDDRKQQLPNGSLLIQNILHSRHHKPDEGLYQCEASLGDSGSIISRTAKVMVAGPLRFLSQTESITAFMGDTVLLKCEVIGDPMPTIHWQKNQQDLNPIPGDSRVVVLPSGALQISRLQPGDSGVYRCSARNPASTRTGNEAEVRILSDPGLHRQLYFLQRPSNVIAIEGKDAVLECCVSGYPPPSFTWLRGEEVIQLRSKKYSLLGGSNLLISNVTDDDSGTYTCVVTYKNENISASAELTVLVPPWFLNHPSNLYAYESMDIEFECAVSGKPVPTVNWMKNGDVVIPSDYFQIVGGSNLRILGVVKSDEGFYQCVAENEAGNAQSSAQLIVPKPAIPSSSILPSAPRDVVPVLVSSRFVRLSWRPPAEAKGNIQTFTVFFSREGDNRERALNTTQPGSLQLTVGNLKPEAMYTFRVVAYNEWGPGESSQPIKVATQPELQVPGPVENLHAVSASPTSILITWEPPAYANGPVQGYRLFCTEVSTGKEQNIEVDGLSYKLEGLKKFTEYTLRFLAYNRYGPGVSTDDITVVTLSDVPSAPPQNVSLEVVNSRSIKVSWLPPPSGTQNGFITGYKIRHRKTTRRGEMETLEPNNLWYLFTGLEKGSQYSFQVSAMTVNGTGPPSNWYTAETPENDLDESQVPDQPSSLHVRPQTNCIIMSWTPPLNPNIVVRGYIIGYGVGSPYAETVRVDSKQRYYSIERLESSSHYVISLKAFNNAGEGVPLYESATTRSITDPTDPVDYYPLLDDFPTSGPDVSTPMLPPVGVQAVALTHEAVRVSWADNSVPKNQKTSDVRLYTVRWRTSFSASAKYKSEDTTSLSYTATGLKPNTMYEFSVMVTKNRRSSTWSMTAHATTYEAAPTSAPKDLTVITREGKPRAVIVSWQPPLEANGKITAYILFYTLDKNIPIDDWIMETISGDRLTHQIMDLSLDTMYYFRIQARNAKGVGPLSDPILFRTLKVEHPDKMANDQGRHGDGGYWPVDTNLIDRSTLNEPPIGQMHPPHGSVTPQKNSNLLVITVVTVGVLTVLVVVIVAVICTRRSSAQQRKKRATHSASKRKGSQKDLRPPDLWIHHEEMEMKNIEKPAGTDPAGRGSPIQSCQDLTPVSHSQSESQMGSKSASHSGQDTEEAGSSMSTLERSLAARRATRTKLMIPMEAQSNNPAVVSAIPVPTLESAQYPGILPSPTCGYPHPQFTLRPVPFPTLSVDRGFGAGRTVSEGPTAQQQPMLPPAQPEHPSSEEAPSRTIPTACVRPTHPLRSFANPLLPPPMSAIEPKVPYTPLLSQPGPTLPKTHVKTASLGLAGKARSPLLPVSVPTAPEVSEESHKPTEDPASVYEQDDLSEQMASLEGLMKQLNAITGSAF

| Substance | effect of a mutation on the interaction (dcc_rat Dcc [1]) | effect of a mutation on the interaction (dcc_rat Dcc [2]) |
| --- | --- | --- |
| Unconventional myosin-X (Homo sapiens), Q9HD67 I2037E | disrupting interaction strength | – |
| Unconventional myosin-X (Homo sapiens), Q9HD67 S1718A;H1719A | – | disrupting interaction strength |
| Unconventional myosin-X (Homo sapiens), Q9HD67 S1718A;H1719A;D1763A;E1769A;K1770A | – | disrupting interaction strength |
